Results published in patent US20250320480A1, “Immunoglobulin Cleaving Enzyme” (priority 2021, published 2025).
“Also recorded” adds a separate entry of the source. Non-standard residues stand in square brackets, D forms with d. Residues, ends and D or L forms follow the SMILES beside them. *: point of attachment. Sta = CC(C)C[C@H](N)[C@@H](O)CC(=O)O; Isovaleryl = CC(C)CC(=O)*

Tests used:
IdeSork2.0 = assay: Protease inhibitor assay; format: biochemical, Streptococcus krösus; conditions: IgG1 pre-incubated with inhibitor, IdeSork2.0 1:5, overnight at 37° C., SDS-PAGE
Experimental: FIG. 4. Protease inhibitor sensitivity of IdeSork2.0.
IgG1 (trastuzumab) was pre-incubated with a set of protease inhibitors (G-Biosciences) before addition of IdeSork2.0 (of SEQ ID NO: 3) (1:5), and the mixture was allowed to incubate overnight at 37° C. before analysis on SDS-PAGE.

casein = assay: General protease activity, EnzChek protease assay; format: biochemical; conditions: casein substrate; FabULOUS 5 μg, FabRICATOR 10 μg, IdeSORK2.0 10 μg
Experimental: FIG. 2. General protease activity. General protease activity was measured with the EnzCHECK protease assay, using casein as a substrate.
General protease activity was determined using the EnzChek Protease Assay kit, according to manufacturer's instructions. As a positive control the general protease FabULOUS (SpeB, 5 μg) was used, and as a negative control the IgG-specific protease FabRICATOR (IdeS, 10 μg). IdeSORK2.0 was added to a total quantity of 10 μg.

[1] = target: denatured and reduced IgG
IgG2 = assay: Comparison to other IgG proteases: IgG2; format: biochemical; conditions: SDS-PAGE
Experimental: (§1) FIG. 10. IdeSork2.0 is having a similar activity compared to IdeS and IdeZ. To investigate if IdeSork2.0 is hydrolyzing IgG in a similar way as IdeS and IdeZ they were all incubated against IgG1 and IgG2 and analyzed on SDS-PAGE. The cleavage patterns look identical, with both IdeSork2.0 and IdeS having less activity towards IgG2.
(§2) To further look into the activity of IdeSORK2.0, its activity was compared with IdeS and IdeZ against both IgG1 and IgG2.

IgG in human serum = assay: Activity of IgG hydrolases in human serum; format: biochemical; conditions: serum (100%), E:S 1:40, 0-4 hours at 37° C., non-reduced SDS-PAGE
Experimental: FIG. 15. Activity of IgG hydrolases in human serum. Serum (100%) was spiked with IgG hydrolases and activity was analyzed over time using non-reduced SDS-PAGE.
For serum activity assays, an E: S ratio of 1:40 (assuming 10 mg/mL IgG in serum) was used, incubating 0-4 hours at 37° C. before analysis on a non-reduced SDS-PAGE. All enzymes were supplied by Genovis AB.

human IgG = conditions: in particular when cleaving IgG2; cited from earlier work
IgG1 = assay: Comparison to other IgG proteases: IgG1; format: biochemical; conditions: SDS-PAGE
Experimental: as §1, §2

**Q.** For `O=C(O)CN(CCN(CC(=O)O)CC(=O)O)CC(=O)O` [EDTA], which “Inhibition of IdeSork2.0 hydrolysis of IgG1 (trastuzumab)” value (“Inhibition” for short) (IdeSork2.0) is on record?
**A.** unaffected; also recorded: besides aprotinin, EDTA, and pepstatin

**Q.** With aprotinin as the molecule, how does the “Inhibition” value (IdeSork2.0) read?
**A.** besides aprotinin, EDTA, and pepstatin

**Q.** With `CC(C)CC(=O)N[C@H](C(=O)N[C@H](C(=O)N[C@@H](CC(C)C)[C@@H](O)CC(=O)N[C@@H](C)C(=O)N[C@@H](CC(C)C)[C@@H](O)CC(=O)O)C(C)C)C(C)C` [pepstatin] (Isovaleryl-VV[Sta]A[Sta]-OH) as the molecule, how does the “Inhibition” value (IdeSork2.0) read?
**A.** besides aprotinin, EDTA, and pepstatin

**Q.** With “FabULOUS: general protease (SpeB), positive control [reference compound]” as the molecule, how does the “General protease activity (signal)” value (casein) read?
**A.** high signal

**Q.** With `CC(C)C[C@H](NC(=O)[C@@H](O)[C@H](N)Cc1ccccc1)C(=O)O` [Bestatin] as the molecule, how does the “Inhibition” value (IdeSork2.0) read?
**A.** only partly inhibitory

B1: IdeSORK2.0 (protein)
chain: MSKRKLLKKIEKKDTSSVLTQKKQTKTLWADGVQVDDKDFKPSTENFGTNYLAAEYGIGKGYYDINKKFDGTDDDLCSGVVAANQLHWWLDRNKDYIEKYRQQSKDNGVTIGNTDIFELNKLHDEDQSNFFDFIKKSFGNKFLQPERLLNMYINGYGYLTSQDKAKTSQPSPSKLNFFQKVFKNNLLTDKTPINDIDEFSSQTKNALQNHKVLAVSFASIKNRGLGHVVTVWGADFDENGKVVALYVTDSDDRSKNIGNAKLGMKKLRIEVSAQDSSTIKLTGFEDKNSGGSLRHLYSLSTGEQIWKKYFEETHHHHHH
**Q.** Which results are given for B1?
**A.** hydrolysis of IgG, SDS-PAGE (mouse IgG2a): the protease is active against mIgG2a; hydrolysis of IgG, SDS-PAGE (rat IgG): only showed activity against horse and guinea pig IgG (no activity on rat IgG); percentage hydrolysis of IgG (IgG): A ratio of 1:40 hydrolyzes >95% of IgG in 30-60 minutes; hydrolysis of IgG, SDS-PAGE (guinea pig IgG): only showed activity against horse and guinea pig IgG; hydrolysis of IgG, SDS-PAGE (mouse IgG2b): but not mIgG1 or mIgG2b; hydrolysis of IgG, SDS-PAGE (horse IgG): only showed activity against horse and guinea pig IgG; hydrolysis of IgG, SDS-PAGE (mouse IgG1): but not mIgG1 or mIgG2b; hydrolysis of IgG, SDS-PAGE (sheep IgG): only showed activity against horse and guinea pig IgG (no activity on sheep IgG); hydrolysis of IgG, SDS-PAGE (monoclonal IgG4): can also hydrolyze monoclonal IgG4; hydrolysis of IgG, SDS-PAGE (cow IgG): only showed activity against horse and guinea pig IgG (no activity on cow IgG); hydrolysis of IgG, SDS-PAGE (porcine IgG): only showed activity against horse and guinea pig IgG (no activity on porcine IgG); hydrolysis, SDS-PAGE (human IgA): IdeSORK2.0 is not active towards IgA; hydrolysis of IgG, SDS-PAGE (dog IgG): only showed activity against horse and guinea pig IgG (no activity on dog IgG); hydrolysis of IgG, SDS-PAGE [1]: IdeSORK2.0 is not active against denatured and reduced IgG; hydrolysis of IgG (IVIG): Incubation with polyclonal IgG (e.g. IVIG) resulted in near complete hydrolysis

B2: IdeZ (protein)
chain: DDYQRNATEAYAKEVPHQITSVWTKGVTPLTPEQFRYNNEDVIHAPYLAHQGWYDITKAFDGKDNLLCGAATAGNMLHWWFDQNKTEIEAYLSKHPEKQKIIFNNQELFDLKAAIDTKDSQTNSQLFNYFRDKAFPNLSARQLGVMPDLVLDMFINGYYLNVFKTQSTDVNRPYQDKDKRGGIFDAVFTRGDQTTLLTARHDLKNKGLNDISTIIKQELTEGRALALSHTYANVSISHVINLWGADFNAEGNLEAIYVTDSDANASIGMKKYFVGINAHGHVAISAKKIEGENIGAQVLGLFTLSSGKDIWQKLS
**Q.** What does the source list for B2?
**A.** hydrolysis of IgG, SDS-PAGE (human IgG1): All enzymes were able to hydrolyze the antibodies in seemingly an identical fashion, though slightly different efficiently; hydrolysis of IgG, SDS-PAGE (human IgG2): All enzymes were able to hydrolyze the antibodies in seemingly an identical fashion, though slightly different efficiently

B3: IdeZ: IgG cysteine protease produced by Streptococcus equi ssp. zooepidemicus (protein)
chain: B2 chain
**Q.** With B3 as the molecule, how does the “Hydrolysis of IgG2” value (IgG2) read?
**A.** able to hydrolyze

**Q.** And the “Immunoglobulin cleavage activity in the presence of human serum” value (IgG in human serum)?
**A.** immunoglobulin cleavage activity

**Q.** And the “IgG cysteine protease activity against human IgG” value (human IgG)?
**A.** considerably lower than that of IdeS

**Q.** And the “Hydrolysis of IgG1” value (IgG1)?
**A.** able to hydrolyze

B4: IdeS (Immunoglobulin G-degrading enzyme of S. pyogenes) (protein)
chain: DSFSANQEIRYSEVTPYHVTSVWTKGVTPPANFTQGEDVFHAPYVANQGWYDITKTFNGKDDLLCGAATAGNMLHWWFDQNKDQIKRYLEEHPEKQKINFNGEQMFDVKEAIDTKNHQLDSKLFEYFKEKAFPYLSTKHLGVFPDHVIDMFINGYRLSLTNHGPTPVKEGSKDPRGGIFDAVFTRGDQSKLLTSRHDFKEKNLKEISDLIKKELTEGKALGLSHTYANVRINHVINLWGADFDSNGNLKAIYVTDSDSNASIGMKKYFVGVNSAGKVAISAKEIKEDNIGAQVLGLFTLSTGQDSWNQTN
**Q.** Which “hydrolysis of IgG, SDS-PAGE” value (human IgG1) does the source give for B4 here?
**A.** All enzymes were able to hydrolyze the antibodies in seemingly an identical fashion, though slightly different efficiently

**Q.** What about the “hydrolysis of IgG, SDS-PAGE” value (human IgG2) of the same molecule?
**A.** All enzymes were able to hydrolyze the antibodies in seemingly an identical fashion, though slightly different efficiently

B5: IdeS: Immunoglobulin G-degrading enzyme of S. pyogenes, IgG-specific cysteine protease (protein)
chain: B4 chain
**Q.** For B5, which “Hydrolysis of IgG2” value (IgG2) is on record?
**A.** able to hydrolyze; also recorded: less activity

**Q.** And the “Immunoglobulin cleavage activity in the presence of human serum” value (IgG in human serum)?
**A.** immunoglobulin cleavage activity

**Q.** What about the “General protease activity (signal)” value (casein) of the same molecule?
**A.** almost no signal

**Q.** What about the “Hydrolysis of IgG1” value (IgG1) of the same molecule?
**A.** able to hydrolyze
